From publication PMC6990103 (2019) come the findings set out here.

Test in all cases: ELISA
Test [1] concerns the target nluc-NP612 fusion protein, SUDV (Sudan ebolavirus (SUDV), UniProt Q9QP77 612-738).
Test [2] has as its target recombinant SUDV Boniface 1976 NP (Sudan ebolavirus (SUDV) Boniface 1976, UniProt Q9QP77 1-738).
Test [3] has as its target recombinant EBOV Kikwit 1995 NP (Zaire ebolavirus (EBOV) Kikwit 1995, UniProt O72142 1-739).
Test [4] concerns the target nluc-NP612 fusion protein, EBOV (Zaire ebolavirus (EBOV), UniProt O72142 612-739).

B1: sdAb SB, biotinylated (from pecan126) (VHH)
VHH: QVKLQQSGGGSVQEGGSLRLSCASSGAFFRAGPMGWYRRAPGNERELVAGISRNGRTIYAPSLKDRFTISRDDDNNILYLQMSDLTPGDTAVYYCNLNVRTAVAGRNDYWGQGTQVTVSS
modifications: biotin (singly biotinylated)
Regarding B1, the EC50 in test [1] is 635 nM.

B2: sdAb SB-gluc fusion (glucibody) (VHH)
VHH: B1 VHH
Turning to B2, the EC50 in test [2] was 37 nM.

B3: sdAb ZC-gluc fusion (glucibody) (VHH)
VHH: KVQLQQSGGGSVTPGGSLRLSCAASGSISDFAAMAWYRQAPGKERDWVGTIFSAGALLYAEPVKGRFTISRDNAKNTVYLQMNSLKPEDTAVYYCRLYAEAIYWGQGTQVTVSS
Turning to B3, the EC50 in test [3] worked out at 13 nM.

B4: sdAb ZC, biotinylated (from pecan126) (VHH)
VHH: B3 VHH
modifications: biotin (singly biotinylated)
In turn, B4 showed an EC50 in test [4] of 186 nM.

B5: sdAb ZE-gluc fusion (glucibody) (VHH)
VHH: QVQLQESGGGLVQPGGSLRLSCTASGFTLAEYGVGWFRQAPGKERELVALIAVGGTTHSIDSVKGRFTISRDNMKNTVYLQMNSLNVEDTAVYYCNAYSSAYDRNYWGQGTQVTVSS
B5: the EC50 in test [3] was 31 nM.

B6: sdAb ZE, biotinylated (from pecan126) (VHH)
VHH: B5 VHH
modifications: biotin (singly biotinylated)
The molecule B6 had an EC50 in test [4] of 1030 nM.
